Laboratory results from article PMC3744072.

Molecular target: matrilin-3 (wild type, mouse) (mouse (endogenous in mouse cartilage and chondrocytes)) (UniProt O35701)
Test: non-reducing SDS-PAGE and Western blot; total protein lysates of isolated chondrocytes of 5-day-old mice, 4-12% gels, non-reduced against reduced (0.1 M DTT); oligomers assigned by apparent size

matrilin-3 (wild type, mouse), sequence (O35701 28-481): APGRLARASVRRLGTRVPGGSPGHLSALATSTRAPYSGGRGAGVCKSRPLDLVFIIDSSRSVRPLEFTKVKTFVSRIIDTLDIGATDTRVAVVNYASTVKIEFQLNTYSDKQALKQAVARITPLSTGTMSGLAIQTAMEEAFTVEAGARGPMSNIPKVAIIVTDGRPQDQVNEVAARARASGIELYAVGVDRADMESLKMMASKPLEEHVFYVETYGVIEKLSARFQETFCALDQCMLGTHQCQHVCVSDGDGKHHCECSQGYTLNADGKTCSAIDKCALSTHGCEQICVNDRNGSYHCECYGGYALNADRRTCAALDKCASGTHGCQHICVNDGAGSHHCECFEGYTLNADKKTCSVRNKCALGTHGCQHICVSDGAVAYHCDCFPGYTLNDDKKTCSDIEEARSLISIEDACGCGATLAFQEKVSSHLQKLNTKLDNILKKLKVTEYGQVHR

stoichiometry N: 4
Substance: matrilin-3 (wild type, mouse) (from UniProt O35701 28-481) (natural protein)
